In patent US12460245B2, “Luciferase sequences utilizing infrared-emitting substrates to produce enhanced luminescence” (Promega Corporation, priority 2014, dated 2025):
Where a chain is given by its changes, count along the chain named. Names may count otherwise. “And” between values parts separate entries of the source, which are not always exact repeats. Equal entries are not always repeated. Each block holds one molecule with its values, some of them ahead of it.

Tests used:
ATG 1240 = experiment: Mimicry of tissue attenuation using long pass filters, transfected HEK293T cells; type: cell-based, click beetle; details: HEK293T cells expressing ATG 1240
Experimental: A transfection complex was prepared by diluting ATG 1240 DNA or Luc2 DNA (pF4Ag-Luc2) to 100 ng/μL, and then 2× serial dilutions prepared in 50 ng/μL pGEM carrier DNA. 40 μL of the diluted DNA was the mixed with 160 μL phenol red free OptiMEM and 16 μL of FuGENE® HD and incubated for 20 min. 5 μL of each transfection complex was added to wells of a 96-well black assay plates and then 100 μL of diluted HEK293T cells (200,000/mL in DMEM+10% FBS) was added. The cells were grown overnight at 37° C. with CO2.
To assay the cells, 4 mM D-luciferin, 2 mM PBI-4813 and 2 mM PBI-4739 substrate solutions were prepared in DMEM+10% FBS. 100 μL of the D-luciferin solution was added to cells expressing Luc2 and ATG 1240, and 100 μL of PBI-4813 or PBI-4739 solution was added to ATG 1240 expressing cells. Samples were incubated for 10 min at 37° C., and luminescence detected on GloMax® Discover (heated to 37° C.) with no filter, 610 nm Long Pass (LP) filter, 665 nm LP filter, 695 nm LP filter, 720 nm LP filter or 760 nm LP filter.

[1] = Substrate inhibition of luciferase activity at high substrate concentration; type: biochemical; details: PBI-4813 at concentrations greater than ten times the Km
[2] = Luminescence of ATG 1230 and ATG 1240 cell lysates, GloMax Discover with red-sensitive PMT; type: biochemical; details: for Luminescence, PBI-4739 / Luminescence, PBI 4813: cell lysate; for Luminescence, PBI-4739: 20 μM PBI-4739; for Luminescence, PBI 4813: 20 μM PBI-4813, GloMax Discover red-sensitive PMT; for PBI-4813/PBI-4739: ratio of luminescence with the two substrates
Experimental: (§1) 2. Cell lysates were prepared from cells containing the variants listed in Table 3 by diluting 100 μL of induced culture with 100 μL of lysis buffer (0.3×PLB, 0.006U RQ DNAse1) using a Tecan liquid handling robot. 50 μL of each cell lysate was assayed with either PBI-4813 or PBI-4739 (20 μM in Bright-Glo™ assay buffer containing 1 mM ATP), and luminescence detected on an ImageQuant CCD imager. Luminescence of the variants was normalized to CBR luciferase (FIG. 8).
Variant clones identified as ATG 1230 (CBR+389F+444R+251S) and ATG 1240 (CBR+334S+351R) were further evaluated for their luminescence, spectral property, Km and live cell kinetics with either PBI-4813 or PBI-4739. These variants were cloned and expressed as described in Example 2 except the template was pF4Ag-CBR, i.e., no HALOTAG®.
A. Luminescence with PBI-4813 and PBI-4739. Cell lysates of these variant clones were prepared and assayed for luminescence as described in Example 6. Luminescence was detected on a GloMax® Discover equipped with a red-sensitive photomultiplier tube (PMT) and compared to CBR luciferase (Table 5 and FIG. 10).

[3] = Combinations of H-acceptor and library screen mutants, lysate luminescence; type: biochemical; details: for Luminescence normalized to CBR luciferase, D-LH2 (luciferin): substrate D-LH2 (luciferin); for Luminescence normalized to CBR luciferase, PBI-4739: substrate PBI-4739; for Luminescence normalized to CBR luciferase, PBI-4813: substrate PBI-4813
Experimental: as §1
Combinations of the Hydrogen acceptor mutants identified in Example 6 were designed and prepared using the QuikChange Multi Site-Directed Mutagenesis Kit (Agilent). Variants were cloned and expressed as described in Example 2 except the template was pF4Ag-CBR. Variants were screened as described in Example 6. Luminescence of the variants using luciferin (“D-LH2”), PBI-4813, and PBI-4739 was normalized to CBR luciferase (Table 4 and FIG. 9).

[4] = Km titration of ATG 1240 compared with CBR in live HEK293T cells; type: cell-based; details: 60 min at 37° C.
Experimental: HEK293T cells were plated at 15,000 cells/well into wells of 96-well white assay plates and grown overnight. A transfection mixture was made containing 6.6 μg of CBR or ATG-1240 DNA and 20 μL FuGENE® HD in a total volume of 310 μL OptiMEM. The mixture was incubated at room temperature for 10 min. The cells were then transfected, in triplicate, with 5 μL of transfection complex and grown overnight.
The transfected cells were then assayed. 2× serial dilutions of PBI-4813 and PBI-4739 starting at 2 mM in CO2 independent media+0.5% FBS were prepared. The growth media from the transfected cells was removed and replaced with one of the serial diluted substrate containing media. The cells were incubated 60 min at 37° C., and luminescence detected on a modified GloMax® Discover luminometer containing a red shifted PMT (see FIG. 23A and FIG. 23B). The Km of ATG 1240 was about 5 times higher than the Km of CBR with PBI-4813. The Km of ATG 1240 was about 3 times higher than the Km of CBR with PBI-4739.

[5] = Secondary library screen using ATG 1240 as template, lysate luminescence; type: biochemical; details: ATG 1240 template (WT = ATG-1240)
Experimental: A random clone library was prepared as described in Example 2 using ATG 1240 as a template. The variants were then cloned into pF4Ag (no HT7). The library was screened as follows (50 plates total):
i. Primary Screen. Cells were grown as described in Example 2. Cell lysates were prepared by diluting 100 μL of induced culture with 100 μL of lysis buffer (0.3×PLB+0.006U RQDNAse1) using a Tecan liquid handling robot. 50 μL of each cell lysate was then assayed with either PBI-4813 or PBI-4739. (20 μM substrate in Bright-Glo™ assay buffer containing 1 mM ATP). Luminescence was detected on a GloMax® Discover.
ii. Secondary Screen. Cells from each hit in the primary screen were streaked onto new plates and grown overnight. Colonies were picked in quadruplicate and cultures were grown as described in Example 2. 50 μL of each cell lysate was assayed with 50 μL of BrightGlo™ assay buffer containing 1 mM ATP and 30 μM PBI-4813 or 50 μM PBI-4739. Luminescence was detected on a GloMax® Discover Multimode Detection System (Table 6). The variants in this library were identified as having on average between 2-3 mutations per gene.

[6] = Recombination of ATG 1240 library mutants, lysate luminescence; type: biochemical
Description: 2. […] Luminescence of the variants was normalized to CBR luciferase (FIG. 8). Combinations of the ATG 1240 library mutants identified in Example 9 were designed and prepared using DNA shuffling ([…] USA 91:10747-10751). Briefly, a library of mutant genes was created via DNA shuffling. The mutant genes were then cloned into the pF4Ag vector and screened as described in Example 6. Luminescence was detected on a GloMax® Discover Multimode Detection System and normalized to ATG-1240 luciferase (Table 8 and FIG. 15).

[7] = listed as 251S + 389F + 444R (343 template)

Molecule: O=C(O)[C@H]1CSC(c2nc3ccc(O)cc3s2)=N1 [D-luciferin, D-(−)-2-(6′-hydroxy-2′-benzoth-iazolyl)-Δ^2-thiazolin-4-carboxylic acid]
luminescence of ATG 1240 when light is attenuated with long pass filters (ATG 1240; 37° C.): may be brighter than with PBI-4739 | luminescence of ATG 1240 at the greatest light attenuation (ATG 1240; long pass filters): comparable

inhibition of luciferase activity by PBI-4813 [1]: inhibits the activity | Luminescence normalized to CBR luciferase, D-LH2 (luciferin) [3]: 1.0 | Luminescence normalized to CBR luciferase, PBI-4739 [3]: 1.0 | Luminescence normalized to CBR luciferase, PBI-4813 [3]: 1.0
B1: CBR: click beetle red luciferase polypeptide of SEQ ID NO: 1 (protein)
chain: MVKREKNVIYGPEPLHPLEDLTAGEMLFRALRKHSHLPQALVDVVGDESLSYKEFFEATVLLAQSLHNCGYKMNDVVSICAENNTRFFIPVIAAWYIGMIVAPVNESYIPDELCKVMGISKPQIVFTTKNILNKVLEVQSRTNFIKRIIILDTVENIHGCESLPNFISRYSDGNIANFKPLHFDPVEQVAAILCSSGTTGLPKGVMQTHQNICVRLIHALDPRYGTQLIPGVTVLVYLPFFHAFGFHITLGYFMVGLRVIMFRRFDQEAFLKAIQDYEVRSVINVPSVILFLSKSPLVDKYDLSSLRELCCGAAPLAKEVAEVAAKRLNLPGIRCGFGLTESTSAIIQTLGDEFKSGSLGRVTPLMAAKIADRETGKALGPNQVGELCIKGPMVSKGYVNNVEATKEAIDDDGWLHSGDFGYYDEDEHFYVVDRYKELIKYKGSQVAPAELEEILLKNPCIRDVAVVGIPDLEAGELPSAFVVKQPGTEITAKEVYDYLAERVSHTKYLRGGVRFVDSIPRNVTGKITRKELLKQLLVKAGGV
Luminescence, PBI-4739 [2]: 17,431 | Luminescence, PBI 4813 [2]: 98,556 | PBI-4813/PBI-4739 [2]: 5.7

inhibition of luciferase activity by PBI-4813 [1]: does not show this inhibition
B2: ATG 1240: CBR variant R334S and G351R (SEQ ID NO: 2) (protein)
chain: B1 chain with R334S, G351R
Km higher than the Km of CBR with PBI-4739 [4]: about 3 times | Km higher than the Km of CBR with PBI-4813 [4]: about 5 times | Luminescence, secondary screen, PBI-4813 ([5]; 30 μM PBI-4813, 1 mM ATP): 1.2 and 1.01 and 1.0 and 0.9 and 1.02 and 0.97 | Luminescence, secondary screen, PBI-4739 ([5]; 50 μM PBI-4739, 1 mM ATP): 1.1 and 1.05 and 1.0 and 0.99 and 0.97 and 0.9 | Luminescence, PBI-4739 [2]: 37,169 | Luminescence, PBI 4813 [2]: 71,299 | PBI-4813/PBI-4739 [2]: 1.9

Luminescence normalized to ATG-1240 luciferase, D-LH2 ([6]; substrate D-LH2): 2.8 | Luminescence normalized to ATG-1240 luciferase, PBI-4739 ([6]; substrate PBI-4739): 3.8 | Luminescence normalized to ATG-1240 luciferase, PBI-4813 ([6]; substrate PBI-4813): 4.0
B3: 5G5: ATG 1240 variant S51N + S444R (SEQ ID NO: 4) (protein)
chain: B1 chain with S51N, R334S, G351R, S444R

inhibition of luciferase activity by PBI-4813 [1]: inhibits the activity | Luminescence normalized to CBR luciferase, D-LH2 (luciferin) [3, 7]: 0.6 and 0.5 | Luminescence normalized to CBR luciferase, PBI-4739 [3, 7]: 1.6 and 1.4 | Luminescence normalized to CBR luciferase, PBI-4813 [3, 7]: 3.4 and 3.2
B4: ATG 1230: CBR variant I389F, S444R, G251S (SEQ ID NO: 3) (protein)
chain: B1 chain with G251S, I389F, S444R
Luminescence, PBI-4739 [2]: 26,595 | Luminescence, PBI 4813 [2]: 310,342 | PBI-4813/PBI-4739 [2]: 11.7
